Results on 2 molecules are retold here after PMC10784492, “De novo biosynthesis of antiarrhythmic alkaloid ajmaline” (Nature Communications, 2024).

The target in data set [1] is T1, RsNNMT (Rauvolfia serpentina, UniProt A0A075D6M1).
T1 construct: gene NNMT; N-terminal His tag, purified from E. coli
Kind of data set: LC-MS/MS detection of ajmaline in coupled reaction. The class given is biochemical. The following applies: 100 μM SAM, 20 mM Tris-HCl pH 7.5, 30 °C; norajmaline formed in situ by RsAAE1/2.

Substrate in data set [2]: C/C=C1/[C@@H](O)N2[C@H]3C[C@@]45c6ccccc6N[C@H]4[C@@H]2C[C@@H]1C3[C@H]5OC(C)=O
Kind of data set: LC-MS/MS product quantification, Michaelis-Menten fit. The data set is classed as biochemical, Rauvolfia serpentina. The following applies: 1 mM NADPH, 20 mM Tris-HCl pH 7.5, 30 °C, 2 min, 19,20-reduction. The source says:
LC-MS/MS product quantification, Michaelis-Menten fit on tDHVR (RsRR4, N-terminal truncated; tRR4)

T1 sequence (A0A075D6M1 whole entry): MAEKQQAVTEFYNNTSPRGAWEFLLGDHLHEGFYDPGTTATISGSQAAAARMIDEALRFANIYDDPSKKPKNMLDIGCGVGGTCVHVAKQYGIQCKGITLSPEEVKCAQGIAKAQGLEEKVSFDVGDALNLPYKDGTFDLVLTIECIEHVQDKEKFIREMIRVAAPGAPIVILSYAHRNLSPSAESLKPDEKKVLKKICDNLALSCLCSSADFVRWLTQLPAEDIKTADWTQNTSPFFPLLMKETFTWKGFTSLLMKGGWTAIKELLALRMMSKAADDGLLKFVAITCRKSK

As to `CC[C@H]1[C@@H]2C[C@H]3[C@@H]4Nc5ccccc5[C@]45C[C@@H]([C@H]2[C@H]5O)N3[C@@H]1O` [norajmaline], the “LC-MS/MS detection of ajmaline in coupled reaction” value in data set [1] is reported as “ajmaline, also confirmed with an authentic standard, was produced at the expense of norajmaline”.

B1: tDHVR (RsRR4, N-terminal truncated; tRR4) (Rauvolfia serpentina) (protein)
chain: MAGKSPEEQHPVKAYGWAATDSSGILSPFKFSRRATGDHDVRVKILYAGVCHSDLQSARNDMGCFTYPLVPGFETVGTATEVGSKVTKVKVGDKVAVGIMVGSCGKCDECVNDRECYCPEVITSYGRIDHDGTPTYGGFSSETVANEKFVFCFPEKLPMAAGAPLLNAGVSVYSAMRFYGLDKPGMHLGVVGLGGLGHLAVKFAKAFGVKVTVISTSTSKKGEAINDLGADAFLVSTDAEQMQAGSGTLDGILDTVPVVHPIEALLGLLKNHTKLVLVGATMGSFELPILPLGVGRKSVVSTIGGSTKETQEMLDFAAEHDITASVEIIPMDYVNTAMERIEKGDVRYRFVIDIGNTLTPPES
notes: N-terminally truncated 363-residue version of the 413-residue full protein (extra N-terminal 50 removed); his-tagged in pET30b(+), E. coli, Ni-NTA; OQ591882 is printed for both DHVR and RsAAE1
The Km is the substrate concentration at which the rate is half of its maximum. By kcat is commonly meant the maximal rate divided by the concentration of active sites. As to B1, in data set [2], the Michaelis constant (Km) is 32.0 µM and the kcat was 10.4 s⁻¹.
